# Results published in the DeepSol protein solubility set.
# Experiment: soluble on expression in E. coli; label from the status in PepcDB or PDB records
row,Sequence,soluble on expression in E. coli
1,SSFKKILGLSSKSHKKSKKMGLPPPYDESSPMETQPSAPLSNDFFGMEDMDLYDKDSLRYEKFRFMLKMTVRSNKPFRSYDDVTAAVSQWDNSYIGMVGKRPFYKIIALIGSSHLQATPAVLADLNQPEYYATLTGRCFLPHRLGLIPPMFNVSETFRKPFNIGIYKGTLDFTFTVSDDESNEKVPHVWEYMNPKYQSQIQKEGLKFGLILSKKATGTWVLDQLSPFK,soluble
2,SSLIKKIEENERKDTLNTLQNMFPDMDPSLIEDVCIAAASRIGPCVDALLSLSE,soluble
3,SSMLPSFGFTQEQVACVCEVLQQGGNLERLGRFLWSLPACDHLHKNESVLKAKAVVAFHRGNFRELYKILESHQFSPHNHPKLQQLWLKAHYVEAEKLCGRPLGAVGKYRVRRKFPLPRTIWDGEETSYCFKEKSRGVLREWYAHNPYPSPREKRELAEATGLTTTQVSNWFKNRRQRDRAAEAKERENTENNNSSSNKQNQLSPLEGGKPLMSSSEEEFSPPQSPDQNSVLLLQGNMGHARSSNYSLPGLTASQPSHGLQTHQHQLQDSLLGPLTSSLVDLGS,soluble
4,SSNPRSLEEEKYDMSGARLALILCVTKAREGSEEDLDALEHMFRQLRFESTMKRDPTAEQFQEELEKFQQAIDSREDPVSCAFVVLMAHGREGFLKGEDGEMVKLENLFEALNNKNCQALRAKPKVYIIQACRGEQRDPGETVGGDEIVMVIKDSPQTIPTYTDALHVYSTVEGYIAYRHDQKGSCFIQTLVDVFTKRKGHILELLTEVTRRMAEAELVQEGKARKTNPEIQSTLRKRLYLQ,soluble
5,SSRERIKRELPPVQEHIDKLRKVIEEGNYYGALQMYKSISARYVTAQRFSEALDILFSGACIELEHGLVNCGADLAILFVDTLVKATSPCNDETLDRIRCIFKLFPRVPVPPHLVDVSDDEDVQNLQESLGEARSRVENLTSFLRAAIKWSAEFGGPRTGYPELHAMLGDYLYTECPELDMVRISRHFVRAEDPEKFASMLVNFMGRCYPGEDDLAIARAVLMYLSMGNMKDANFMMDEIKKQAETKNPELSESDLIQFISYLLETLQRDALPLFNMLRVKYKSSIDRDQLLNELLDEIAERFYGVQRKNPLQGMFGDIFKMMG,soluble
6,SSVASALLLQEAQAGFCRVDGTIDNNHTGFTGSGFANTNNAQGAAVVWAIDATSSGRRTLTIRYANGGTANRNGSLVINGGSNGNYTVSLPTTGAWTTWQTATIDVDLVQGNNIVQLSATTAEGLPNIDSLSVVGGTVRAGNCG,soluble
7,SSVLLRPILPEDEPKHASFISQVSHDDLYKRFFSEVGEFNHEALANFTQIDYDREMAFVATKQIDGEEIIIAVVRALSDPNHTNTEFAVLVRSDLKGLGLGKILMEKIIRYCQSIGIKVMTGMTMPANHGMIGLAQHLGFSVDIQMSDGVVDMFLEL,not soluble
8,STAREQPIFSTRAHVFQIDPATKRNWIPAGKHALTVSYFYDATRNVYRIISIGGAKAIINSTVTPNMTFTKTSQKFGQWADSRANTVYGLGFASEQHLTQFAEKFQEVKEAARLARE,soluble
9,STFEELNGDYSIERMDSVIKALEEVLRSALPQGCITVGVYEAAKSLNVDPDNVVLCILATDDDDVKDVALQIHFTLIQAFCCENDINILRVNNTRRLANILGGAGMHGSEQMDLHCILVTVPHASTWKNPALGKVNRFCRESRCMDQWVPIINLPER,soluble
10,STLSRFAYNGKRCPSSYNILDNSKIISEECRKELTALLHHYYPIEIDPHRTVKEKLPHMVEWWTKAHNLLCQQKIQKFQIAQVVRESNAMLREGYKTFFNTLYHNNIPLFIFSAGIGDILEEIIRQMKVFHPNIHIVSNYMDFNEDGFLQGFKGQLIHTYNKNSSVCENCGYFQQLEGKTNVILLGDSIGDLTMADGVPGVQNILKIGFLNDKVEERRERYMDSYDIVLEKDETLDVVNGLLQHILCQGVQLEMQGP,soluble
11,STRDDDDDEDDEEEEDSGAWGRESYAFDGFHPTEEFGFSFSPRGGMRFHGNFGFDDLVRDFNSIFSEMGAWTLPSHSPELPGPESETPGVRLREGQTLRDSMLKYPDSHQPRIFEGVLESHAKPESSKPAPDWGSQGPFHRLDDTWPVSPHSRAREDKDLDSQVSQEGLGPLLQPQPKSYFKSISVTKITKPDGTVEEHRTVVDGEGRRETTVTHQEAHDSSRSDPDPPRSSALDDPFSILDLLLGRWFRSR,soluble
12,STSCVAEEPIKKIAIFGGTHGNELTGVFLVTHWLKNGAEVHRAGLEVKPFITNPRAVEKCTRYIDCDLNRVFDLENLSKEMSEDLPYEVRRAQEINHLFGPKNSDDAYDVVFDLHNTTSNMGCTLILEDSRNDFLIQMFHYIKTCMAPLPCSVYLIEHPSLKYATTRSIAKYPVGIEVGPQPHGVLRADILDQMRRMLKHALDFIQRFNEGKEFPPCAIDVYKIMEKVDYPRNESGDVAAVIHPNLQDQDWKPLHPGDPVFVSLDGKVIPLGGDCTVYPVFVNEAAYYEKKEAFAKTTKLTLNAKSIRSTLH,not soluble
13,SVRTACKSRAVSSGKQTGKWQSWSDAGVLTVFECEGLKLILNTWTPIPFSPFPVHHLFTPMLIGRLCGTRIETLALIHGGISLPATALRSPNSGVKLPLLVSPLFPMETTPSALRLLSSHKAESGSPTLFTLVHLLPLLLQ,soluble
14,SWQTYVDTNLVGTGAVTQAAIIGHDGNTWATSAGFAVSPANGAALANAFKDATAIRSNGFELAGTRYVTIRADDRSVYGKKGSAGVITVKTSKAILIGVYNEKIQPGTAANVVEKLADYLIGQGF,soluble
15,SYETSQHNLDAVEAVLSRLQKQTGEMAAYMVPVGYRALCVSQRESMQALRCSFVQGQSQPLLRGASSKVMLAYMPAARCEKILRYFGEDPTLDKWQSEFEKIRRHGYAVSTSEIDPGVSGISAPVMKGSKLIGAISVMAPAHRVESNKQRIILHVLQAARALPPER,not soluble
16,SYYHHHHHHLESTSLYKKAGLKIKAVGAYSAKQPLEPMDITRREPGPNDVKIEIAYCGVCHSDLHQVRSEWAGTVYPCVPGHEIVGRVVAVGDQVEKYAPGDLVGVGCIVDSCKHCEECEDGLENYCDHMTGTYNSPTPDEPGHTLGGYSQQIVVHERYVLRIRHPQEQLAAVAPLLCAGITTYSPLRHWQAGPGKKVGVVGIGGLGHMGIKLAHAMGAHVVAFTTSEAKREAAKALGADEVVNSRNADEMAAHLKSFDFILNTVAAPHNLDDFTTLLKRDGTMTLVGAPATPHKSPEVFNLIMKRRAIAGSMIGGIPETQEMLDFCAEHGIVADIEMIRADQINEAYERMLRGDVKYRFVIDNRTLTD,soluble
17,TAQFSWDTQLNFSQNKSKIIELLPGKPGMQYALGGSDALQVYAVAGGAYGEIWGTKYQRVEEGEFKGQLLLNESGLPQATSDKHKIGEQQPDFLLGWTNTFNYKNFTLSFLIDGRFGGDIFSFTNMNLQRSGIAECTAPGGKREDIVVAGVIKDGNGYKVNDQSVSLERYYKALATGRAGISEAYIYDATNIRLRNIALSYRFPSSMLKKTPFQQVKLGFTVNNVWMISSHLDGIDPESVYATSTNATGLENSSAPTSRSYLFNVTLGF,not soluble
18,TITLTENKRKSMEKLSVDGVISALAFDQRGALKRMMAQHQTKEPTVEQIEELKSLVSEELTPFASSILLDPEYGLPASRVRSEEAGLLLAYEKTGYDATTTSRLPDCLDVWSAKRIKEAGAEAVKFLLYYDIDGDQDVNEQKKAYIERIGSECRAEDIPFYLEILTYDEKIADNASPEFAKVKAHKVNEAMKVFSKERFGVDVLKVEVPVNMKFVEGFADGEVLFTKEEAAQAFRDQEASTDLPYIYLSAGVSAKLFQDTLVFAAESGAKFNGVLCGRATWAGSVKVYIEEGPQAAREWLRTEGFKNIDELNKVLDKTASPWTEKM,soluble
19,TKDFNWNSTFNIAYNSSDVKYLGIDGTGEKIKRLTLDGANSRVGSVSVQNILGHPYGELVGYEYKRTSDGQVIFENGLPVHSDEVQVLGNGVYKVTGGWRNEFTYKNITLSFLIDFKAGAKMFSGTNLSLYSNGLHKNTLQGRGADGKGTMVGNGVMSDGKGGYVKNTVAVSAQDYWQAITSQNIAEEFVYNASFIKLRELSVGYTLPQAWLNKQTLIKGVTLSLVGRNLWTILKHTDNIDPESAYNNGNAQGLELNGYPATRNVGFNVNVKF,not soluble
20,TKRYYKSAFPVRICVIQYEMKKIYSFEEFANQVEYYVDVASDARSDFAVFPEIFTTQLMSFLEERSPSLAVQRITEYTEDYISLFTDLAVKYNVNIIGGSHFVEEEGKIYNIAYLFRRDGTIEKQYKLHITPNERKWWGISAGDQVRVFDTDCGKIAIQICYDIEFPELARIAADKGAKIIFTPFCTEDRQGYLRVRYCSQARAVENQIYTVISGTVGNLPQTENMDIQYAQSGIFAPSDFEFARDGIVGETNPNIEMVVIGDVDLEILRRQRQNGTVRQLKDRRRDIYHIQYKK,not soluble
21,TLAQPVTIREIAEPPKIRLPRHLRQTYIRKVGEQLNLVVPFQGKPRPQVVWTKGGAPLDTSRVHVRTSDFDTVFFVRQAARSDSGEYELSVQIENMKDTATIRIRVVEKAG,soluble
22,TLAYKEGFYYKPRIDYELLEKYGEGLIALTACLKGVPTYYASINEVKKAEEWVKKFKDIFGDDLYLELQANNIPEQEVANRNLIEIAKKYDVKLIATQDAHYLNPE,soluble
23,TLINHLKSLKSQVSAKSASETSQTKQNKTFLAFTTVNADQKAIFDVGKLNGKTAKIIINATETTNAKISTLQEKEAIVLKAPQRFESTDPFPI,not soluble
24,TMSHGFGVMAGINLTKNIGVQAEVNYYQINQKYADGNLNRDLTINYFNIPVLLSLNTNKAAPVNLNLVAGPQFGINAGSKFETSGNGNTDSTTAVVALRKGDVGVAYGAGLEFALNKSHSVRLDLGFRGFYGLVNMDSSTNGQGTYNVIVSASRKTYGGYAGITWMF,not soluble
25,TNRLSAYTSHRISKYNDRQTNTSLDINIGKFSSNTNYFFYHTDGWQNSPFEIKKKKGSGEPVLEETYKKTFRAQENQGVSQSLSYYATNNLSFSGNVQYNKRQIFTPTFSEKKAYDMDYRALTASLGTNYLFPNGLHTLSFDAVYDRFRFGYLYHDKDSSESLINNQGQTEQPTFFPGQLRNKNDQIRYTAEARGVFTLPYAQKLTGGLEYFREELISPYNLITDKADASTLSAYVQDEWKPLDWFNMTAGFRLVHHQEFGTRMTPKVSILAKYGPLNFRATYANGYKTPTLKELFARNELTTMGSHNLYLGNADLKPQMSDYYALGLEYNQGPISFSATVYDNELRNLISFMDIPTSPEHEAQGIKKTKQYANIGKARSRGLDVLCDASIGWGIKLGAGYSLVEAKNLQTDEWLEGAARHRANVHADWVHYWGQYRLGVSLFGRIQSERYYKDGNAPDYTLWRLATSHRFAHFRHIILDGTLGIDNLFDYVDDRPMGVNYATVTPGRTFFAQIAIRFNN,not soluble
26,TTFENKKVLVLGLARSGEAAARLLAKLGAIVTVNDGKPFDENPTAQSLLEEGIKVVCGSHPLELLDEDFCYMIKNPGIPYNNPMVKKALEKQIPVL,not soluble
27,TVAVSQIVEHPALDATRQGLLDGLKAKGYEEGKNLEFDYKTAQGNPAIAVQIARQYVGESPDVLVGIATPSAQALVSATRTIPVVFTAVTDPVGAKLVKSMKQPGKNVTGLSDLSPVAQHVELIQEILPQVKSIGVVFNPGEANAVTLVNLLKESAEAKGIKVVEATALKSADVQSATQAIAAKSDILYAPTDNTVASAIEGMIVAANQAKKPVFGGATSYVEKGAIAGLGFDYYQVGVQTADYVAAILDGQEPGKLDVKVATGSDLVINESAASKLGIQLPSSVVQRATSMQ,not soluble
